Reference: the Human Domainome abundance scans (Beltran et al. 2025)
± gives the uncertainty stated by the source.

B1: Myocardin, residues 363 to 406; numbered along this chain, Q8IZQ8 (parent)
chain: KPGPLPPNLDDLKVSELRQQLRIRGLPVSGTKTALMDRLRPFQD

Variants of: B1
Test: abundance fitness (aPCA) (normalised: wild type 0, dead -1); higher = more abundant; growth selection in yeast, the domain comes from the species named
Settings: Homo sapiens

Variant	abundance fitness
Q20V	-0.57 ± 0.08
Q20D	-0.608 ± 0.1
Q20L	0.073 ± 0.075
Q20Y	-0.38 ± 0.13
Q20C	-0.395 ± 0.11
Q20H	0.073 ± 0.11
Q20I	0.05 ± 0.25
Q20A	0.004 ± 0.059
Q20S	-0.711 ± 0.15
Q20K	-0.314 ± 0.1
Q20W	-0.767 ± 0.095
Q20R	-0.602 ± 0.11
Q20F	-0.093 ± 0.16
Q20G	-0.697 ± 0.073
Q20P	-0.785 ± 0.16
R22G	-0.531 ± 0.07
R22A	-0.138 ± 0.074
R22N	-0.371 ± 0.11
R22M	-0.619 ± 0.44
R22W	-0.771 ± 0.12
R22S	-0.21 ± 0.11
R22Q	-0.928 ± 0.16
R22L	-0.374 ± 0.15
R22I	-0.384 ± 0.17

Variant	abundance fitness
R22K	0.063 ± 0.12
R22T	-0.258 ± 0.12
R22C	-0.194 ± 0.34
R22P	-0.818 ± 0.14
R22V	-0.557 ± 0.11
R22H	-0.624 ± 0.39
D37E	0.246 ± 0.076
D37C	-0.39 ± 0.14
D37A	-0.265 ± 0.062
D37F	-1.21 ± 0.22
L26E	-0.293 ± 0.084
L26R	-0.858 ± 0.083
L26K	-0.404 ± 0.2
L26H	-1.1 ± 0.27
L26M	0.075 ± 0.13
L26T	-0.805 ± 0.15
L26W	-0.951 ± 0.14
L26I	-0.431 ± 0.19
L26A	-0.479 ± 0.094
L26Q	-0.503 ± 0.14
L26P	-0.676 ± 0.38
L26S	-0.562 ± 0.1
L26G	-0.586 ± 0.12
L26V	-0.732 ± 0.12

Variant	abundance fitness
I23S	0.033 ± 0.067
I23V	-0.092 ± 0.061
I23R	-0.211 ± 0.065
I23Q	-0.229 ± 0.092
I23P	-0.605 ± 0.12
I23T	-0.261 ± 0.18
I23Y	0.013 ± 0.098
I23K	-0.153 ± 0.084
I23W	-0.291 ± 0.085
I23N	-0.45 ± 0.26
I23E	0.043 ± 0.12
I23F	-0.378 ± 0.26
I23C	-0.315 ± 0.47
I23G	-0.24 ± 0.06
I23L	-0.021 ± 0.099
I23A	0.091 ± 0.062
P27A	-0.376 ± 0.093
P27W	-0.951 ± 0.15
P27C	-0.216 ± 0.1
P27M	-0.324 ± 0.13
P27L	-0.657 ± 0.099
P27Q	-0.05 ± 0.094
P27E	-0.245 ± 0.087
P27R	-0.344 ± 0.055

Variant	abundance fitness
P27I	-0.374 ± 0.14
P27V	-0.73 ± 0.12
P27T	-0.39 ± 0.17
P27G	-0.41 ± 0.068
P27D	0.162 ± 0.071
P27Y	-0.891 ± 0.13
P27S	-0.043 ± 0.076
P27H	-0.149 ± 0.19
M36C	-0.454 ± 0.16
M36R	-0.216 ± 0.066
M36W	-0.935 ± 0.089
M36Q	-0.398 ± 0.16
M36A	-0.255 ± 0.066
M36T	-0.27 ± 0.094
M36G	-0.668 ± 0.074
M36E	-0.463 ± 0.12
M36L	-0.449 ± 0.098
M36S	-0.64 ± 0.12
M36K	-0.083 ± 0.2
M36I	-0.125 ± 0.16
M36D	-0.505 ± 0.19
M36V	-0.183 ± 0.075
M36P	-0.419 ± 0.098
K32P	-0.583 ± 0.071

Variant	abundance fitness
K32W	-0.759 ± 0.1
K32T	-0.349 ± 0.083
K32Q	-0.58 ± 0.11
K32D	-0.489 ± 0.1
K32A	-0.449 ± 0.068
K32E	-0.286 ± 0.085
K32G	-0.856 ± 0.092
K32V	-0.357 ± 0.09
K32M	-0.696 ± 0.16
K32S	-0.905 ± 0.11
K32R	-0.012 ± 0.054
K32C	-0.763 ± 0.16
K32L	-0.784 ± 0.074
K32I	-0.488 ± 0.26
K32F	-0.642 ± 0.15
K32Y	-0.593 ± 0.31
T31H	-0.331 ± 0.13
T31A	0.078 ± 0.1
T31R	-0.319 ± 0.085
T31Q	-0.273 ± 0.12
T31W	-0.994 ± 0.13
T31E	-0.01 ± 0.11
T31K	-0.217 ± 0.16
T31M	-0.62 ± 0.22

Variant	abundance fitness
T31L	-0.344 ± 0.092
T31C	-0.052 ± 0.24
T31N	0.352 ± 0.11
T31S	0.103 ± 0.1
T31D	0.155 ± 0.092
T31G	-0.214 ± 0.06
T31F	-0.718 ± 0.39
T31P	-0.222 ± 0.094
T31V	-0.189 ± 0.072
S15W	-0.163 ± 0.085
S15N	-0.288 ± 0.23
S15V	-0.243 ± 0.085
S15Q	-0.261 ± 0.076
S15R	-0.22 ± 0.065
S15Y	-0.274 ± 0.13
S15M	-0.245 ± 0.12
S15L	-0.688 ± 0.17
S15T	0.071 ± 0.24
S15P	-0.346 ± 0.077
L21G	-0.68 ± 0.069
L21P	-0.523 ± 0.12
L21W	-1.02 ± 0.13
L21D	-0.361 ± 0.11
L21S	-0.94 ± 0.15

Variant	abundance fitness
L21E	-0.42 ± 0.096
L21C	-0.271 ± 0.17
L21V	-0.432 ± 0.1
L21K	-0.296 ± 0.15
L21A	-0.037 ± 0.061
L21Q	-0.517 ± 0.091
L21M	-0.321 ± 0.12
L21N	-0.244 ± 0.26
S29N	-0.264 ± 0.21
S29A	-0.071 ± 0.064
S29C	-0.191 ± 0.11
S29Q	0.006 ± 0.16
S29M	-0.003 ± 0.14
S29I	-0.376 ± 0.098
S29E	0.129 ± 0.074
S29F	-0.245 ± 0.32
S29G	0.042 ± 0.07
S29T	-0.001 ± 0.087
S29K	-0.113 ± 0.081
S29V	-0.097 ± 0.079
S29P	-0.605 ± 0.095
S29H	-0.108 ± 0.16
S29Y	-0.095 ± 0.29
S29L	-0.333 ± 0.093

Variant	abundance fitness
S29R	-0.362 ± 0.068
E16V	-0.481 ± 0.079
E16D	-0.27 ± 0.14
E16T	-0.515 ± 0.12
E16A	-0.295 ± 0.11
E16M	-0.615 ± 0.078
E16W	-0.613 ± 0.15
E16Y	-0.323 ± 0.17
E16S	-0.47 ± 0.072
E16L	-0.826 ± 0.12
E16K	-0.842 ± 0.28
E16P	-0.939 ± 0.2
E16H	-0.983 ± 0.18
E16R	-0.827 ± 0.12
L17G	-0.649 ± 0.064
L17K	-0.345 ± 0.12
L17V	-0.606 ± 0.084
L17N	-1 ± 0.35
L17E	-0.454 ± 0.09
L17T	-0.779 ± 0.13
L17W	-0.798 ± 0.099
L17H	-0.878 ± 0.31
L17Y	-1.02 ± 0.22
L17C	-1.31 ± 0.36

Variant	abundance fitness
L17A	-0.583 ± 0.081
L17I	-0.6 ± 0.44
L17R	-0.606 ± 0.071
L17D	-0.86 ± 0.42
L17M	-0.265 ± 0.076
G25R	-0.401 ± 0.09
G25M	-0.358 ± 0.14
G25S	-0.318 ± 0.12
G25D	-0.246 ± 0.16
G25P	-0.591 ± 0.12
G25K	0.068 ± 0.14
G25E	-0.274 ± 0.1
G25N	-0.024 ± 0.18
G25Q	-0.325 ± 0.088
G25L	-1.12 ± 0.35
G25H	0.308 ± 0.16
G25V	-1.38 ± 0.3
G25F	-0.175 ± 0.38
G25C	-0.342 ± 0.12
G25W	-1.15 ± 0.25
G25A	-0.39 ± 0.084
G25T	-0.56 ± 0.1
T33S	-0.071 ± 0.095
T33K	0.016 ± 0.14

Variant	abundance fitness
T33W	-0.467 ± 0.099
T33M	-0.402 ± 0.14
T33E	0.292 ± 0.078
T33I	0.085 ± 0.14
T33L	-0.19 ± 0.079
T33N	-0.001 ± 0.08
T33R	-0.055 ± 0.059
T33P	-0.17 ± 0.087
T33A	0.077 ± 0.064
T33V	0.016 ± 0.063
T33C	-0.072 ± 0.1
T33Q	-0.385 ± 0.21
T33D	0.138 ± 0.1
T33F	-0.144 ± 0.16
L35P	-0.578 ± 0.079
L35T	-0.551 ± 0.097
L35M	0.064 ± 0.093
L35E	-0.293 ± 0.076
L35S	-0.418 ± 0.1
L35V	-0.459 ± 0.081
L35N	-0.613 ± 0.17
L35I	0.092 ± 0.26
L35H	-0.943 ± 0.25
L35Q	-0.226 ± 0.1

Variant	abundance fitness
L35W	-0.561 ± 0.11
L35K	-0.469 ± 0.093
L35C	-0.184 ± 0.2
L35G	-0.489 ± 0.068
L35R	-0.799 ± 0.077
L35D	-0.459 ± 0.15
Q19A	-0.194 ± 0.073
Q19W	-0.717 ± 0.18
Q19D	-0.05 ± 0.14
Q19M	-0.206 ± 0.18
Q19S	-0.261 ± 0.09
Q19C	-0.464 ± 0.093
Q19H	-0.412 ± 0.41
Q19L	-0.198 ± 0.088
Q19E	0.029 ± 0.087
Q19P	-0.761 ± 0.13
Q19V	-0.544 ± 0.096
Q19G	-0.368 ± 0.066
Q19Y	-0.124 ± 0.14
Q19T	-0.439 ± 0.17
R18W	-0.861 ± 0.19
R18F	-0.481 ± 0.16
R18K	0.032 ± 0.1
R18T	-0.388 ± 0.1

Variant	abundance fitness
R18V	-0.312 ± 0.076
R18H	-0.321 ± 0.24
R18P	-0.727 ± 0.15
R18L	-0.44 ± 0.091
R18E	-0.177 ± 0.15
R18I	-0.133 ± 0.47
R18M	-0.503 ± 0.11
R18Y	-0.744 ± 0.31
R18A	-0.366 ± 0.074
R18C	0.116 ± 0.26
R18Q	-0.179 ± 0.11
R18G	-0.888 ± 0.12
A34E	0.011 ± 0.066
A34R	-0.642 ± 0.073
A34P	-0.825 ± 0.22
A34V	0.026 ± 0.084
A34W	-1.14 ± 0.28
A34K	-0.4 ± 0.11
A34D	0.137 ± 0.077
A34C	-0.467 ± 0.1
A34S	-0.223 ± 0.085
A34T	-0.076 ± 0.12
A34F	-0.909 ± 0.22
A34Q	-0.601 ± 0.14

Variant	abundance fitness
A34L	-0.721 ± 0.13
A34M	-0.262 ± 0.18
A34G	-0.556 ± 0.075
V28M	0.017 ± 0.18
V28Q	0.027 ± 0.069
V28E	0.082 ± 0.068
V28L	-0.07 ± 0.064
V28T	0.153 ± 0.088
V28S	0.123 ± 0.098
V28P	-0.198 ± 0.074
V28G	-0.168 ± 0.062
V28R	-0.671 ± 0.075
V28K	-0.436 ± 0.14
V28C	0.207 ± 0.094
V28H	-0.264 ± 0.14
V28D	0.294 ± 0.18
V28W	-0.13 ± 0.089
V28A	-0.002 ± 0.063
V28I	0.217 ± 0.17
G30D	-0.504 ± 0.13
G30T	-0.901 ± 0.3
G30A	-0.967 ± 0.14
G30L	-0.879 ± 0.12
G30S	-0.779 ± 0.1

Variant	abundance fitness
G30V	-0.894 ± 0.096
G30E	-0.607 ± 0.11
G30N	-0.871 ± 0.48
G30C	-0.709 ± 0.17
G30Y	-0.951 ± 0.14
G30R	-0.876 ± 0.12
R24P	-0.456 ± 0.16
R24W	-0.732 ± 0.14
R24D	-0.536 ± 0.16
R24M	0.092 ± 0.2
R24F	-0.819 ± 0.19
R24Y	-1.16 ± 0.34
R24N	-0.695 ± 0.15
R24E	-0.56 ± 0.14
R24A	-0.695 ± 0.11
R24T	-0.905 ± 0.26
R24V	-0.528 ± 0.1
R24G	-0.878 ± 0.11
R24Q	-0.73 ± 0.2
R24S	-0.881 ± 0.16
R24K	-0.387 ± 0.095
R24L	-0.429 ± 0.12
